Patent publication US9006178 (Novo Nordisk, dated 2015)
*1 amine or outer side, *2 acyl side, *3 side chain or, on linkers, in order; H or OH if unused. Where no end group is shown, it is not given here. Side-chain parts run from the residue outwards. [ ]: non-standard residue; d: D form. The star is where a group is joined. Dodecanoyl(12-OPh(4-COOH)) = O=C(O)c1ccc(OCCCCCCCCCCCC(=O)*)cc1; Decanoyl(10-(4-HOOC-PhO)) = O=C(O)c1ccc(OCCCCCCCCCC(=O)*)cc1; C18 diacid = O=C(O)CCCCCCCCCCCCCCCCC(=O)*; C16 diacid = O=C(O)CCCCCCCCCCCCCCC(=O)*; γGlu = O=C(O)[C@H](CCC(=O)[*:2])N[*:1]; Desaminohistidyl = O=C(CCc1c[nH]cn1)*; εLys = N[C@@H](CCCCN[*:1])C(=O)[*:2]; AEEA = NCCOCCOCC(=O)O; Aib = CC(C)(N)C(=O)O

B1: N^ε18-[2-[2-[2-[[(2S)-2-amino-6-[[2-[2-[2-[[(4S)-4-carboxy-4-[10-(4-carboxyphenoxyl)decanoylamino]butanoyl]amino]ethoxy]ethoxy]acetyl]amino]hexanoyl]amino]ethox … (peptide)
peptide: [Desaminohistidyl]AEGTFTSDVSK([AEEA-εLys-AEEA-γGlu-Decanoyl(10-(4-HOOC-PhO))])YLEEQAVREFIAK([AEEA-εLys-AEEA-γGlu-Decanoyl(10-(4-HOOC-PhO))])LVRGRG
notes: Double-acylated GLP-1 analogue; positions are counted with residue 1 of the entry as no
B2: N^ε18-[2-[2-[2-[[(2S)-2-amino-6-[[2-[2-[2-[[(4S)-4-carboxy-4-[10-(4-carboxyphenoxyl)decanoylamino]butanoyl]amino]ethoxy]ethoxy]acetyl]amino]hexanoyl]amino]ethox … (peptide)
peptide: [Desaminohistidyl][Aib]EGTFTSDVSK([AEEA-εLys-AEEA-γGlu-Decanoyl(10-(4-HOOC-PhO))])YLEEQAAK([AEEA-εLys-AEEA-γGlu-Decanoyl(10-(4-HOOC-PhO))])EFIAWLVQGRG
notes: as for B1
B3: N^ε18-[(2S)-2-amino-6-[[(2S)-2-amino-6-[[(4S)-4-carboxy-4-[12-(4-carboxyphenoxy)dodecanoylamino]butanoyl]amino]hexanoyl]amino]hexanoyl], … (peptide)
peptide: H[Aib]EGTFTSDVSK([εLys-εLys-γGlu-Dodecanoyl(12-OPh(4-COOH))])YLEGQAAK([εLys-εLys-γGlu-Dodecanoyl(12-OPh(4-COOH))])EFIAWLVQGRG
notes: Double-acylated GLP-1 analogue; positions are counted with His as no
B4: N^ε18-[(2S)-2-amino-6-[[2-[2-[2-[[(4S)-4-carboxy-4-(15-carboxypentadecanoylamino)butanoyl]amino]ethoxy]ethoxy]acetyl]amino]hexanoyl], … (peptide)
peptide: H[Aib]EGTFTSDVSK([εLys-AEEA-γGlu-C16 diacid])YLEGQAAK([εLys-AEEA-γGlu-C16 diacid])EFIAWLVQGRG
notes: as for B3
B5: N^ε18-[(2S)-2-amino-6-[[(2S)-2-amino-6-[[(4S)-4-carboxy-4-(15-carboxypentadecanoylamino)butanoyl]amino]hexanoyl]amino]hexanoyl], … (peptide)
peptide: H[Aib]EGTFTSDVSK([εLys-εLys-γGlu-C16 diacid])YLEGQAAK([εLys-εLys-γGlu-C16 diacid])EFIAWLVQGRG
notes: as for B3
B6: N^ε18-[(2S)-2-amino-6-[[2-[2-[2-[[2-[2-[2-[[(4S)-4-carboxy-4-[12-(4-carboxyphenoxy)dodecanoylamino]butanoyl]amino]ethoxy]ethoxy]acetyl]amino]ethoxy]ethoxy]acety … (peptide)
peptide: H[Aib]EGTFTSDVSK([εLys-AEEA-AEEA-γGlu-Dodecanoyl(12-OPh(4-COOH))])YLEGQAAK([εLys-AEEA-AEEA-γGlu-Dodecanoyl(12-OPh(4-COOH))])EFIAWLVQGRG
notes: as for B3
B7: N^ε18-[(2S)-2-amino-6-[[(4S)-4-carboxy-4-(15-carboxypentadecanoylamino)butanoyl]amino]hexanoyl], … (peptide)
peptide: H[Aib]EGTFTSDVSK([εLys-γGlu-C16 diacid])YLEGQAAK([εLys-γGlu-C16 diacid])EFIAWLVQGRG
notes: as for B3
B8: N^ε18-[(2S)-2-amino-6-[[2-[2-[2-(15-carboxypentadecanoylamino)ethoxy]ethoxy]acetyl]amino]hexanoyl], … (peptide)
peptide: H[Aib]EGTFTSDVSK([εLys-AEEA-C16 diacid])YLEGQAAK([εLys-AEEA-C16 diacid])EFIAWLVQGRG
notes: as for B3
B9: N^ε18-[(2S)-2-amino-6-[[(2S)-2-amino-6-[[(4S)-4-carboxy-4-(17-carboxyheptadecanoylamino)butanoyl]amino]hexanoyl]amino]hexanoyl], … (peptide)
peptide: H[Aib]EGTFTSDVSK([εLys-εLys-γGlu-C18 diacid])YLEGQAAK([εLys-εLys-γGlu-C18 diacid])EFIAWLVQGRG
notes: as for B3
B10: N^ε18-[(2S)-2-amino-6-[[(2S)-2-amino-6-[[(4S)-4-carboxy-4-[10-(4-carboxyphenoxyl)decanoylamino]butanoyl]amino]hexanoyl]amino]hexanoyl], … (peptide)
peptide: H[Aib]EGTFTSDVSK([εLys-εLys-γGlu-Decanoyl(10-(4-HOOC-PhO))])YLEGQAAK([εLys-εLys-γGlu-Decanoyl(10-(4-HOOC-PhO))])EFIAWLVQGRG
notes: as for B3

Target: T1, human GLP-1 receptor (human, UniProt P43220 24-463)
T1 construct: whole, on cells; also called hGLP-1
Test: SPA displacement of [125I]-GLP-1(7-36)NH2 from human GLP-1 receptor membranes, low albumin (0.005% HSA)
Description: (§1) 25 ul (microliter) of test compounds are added to Optiplate. HSA ("high albumin" experiment containing 2% HSA), or buffer ("low albumin" experiment containing 0.005% HSA), was added (50 ul). 5-10 ug protein/sample was added (50 ul) corresponding to 0.1-0.2 mg protein/ml (to be preferably optimised for each membrane preparation). SPA-particles (Wheatgerm agglutinin SPA beads, Perkin Elmer, #RPNQ0001) were added in an amount of 0.5 mg/well (50 ul). […] The plates were sealed with PlateSealer and incubated for 120 minutes at 30° C. while shaking. The plates were centrifuged (1500 rpm, 10 min) and counted in Topcounter.

Row | Molecule | IC50 [nM]
1 | N^ε18-[(2S)-2-amino-6-[[(2S)-2-amino-6-[[(4S)-4-carboxy-4-[10-(4-carboxyphenoxyl)decanoylamino]butanoyl]amino]hexanoyl]amino]hexanoyl], N^ε26-[(2S)-2-amino-6-[[(2S)-2-amino-6-[[(4S)-4-carboxy-4-[10-(4-carboxyphenoxyl)decanoylamino]butanoyl]amino]hexanoyl]amino]hexanoyl]-[Aib^8,Lys^18,Glu^22,Gln^34] (SEQ ID NO: 9)-GLP-1-(7-37)-peptide | < 35
2 | N^ε18-[(2S)-2-amino-6-[[(4S)-4-carboxy-4-(13-carboxytridecanoylamino)butanoyl]amino]hexanoyl], N^ε26-[(2S)-2-amino-6-[[(4S)-4-carboxy-4-(13-carboxytridecanoylamino)butanoyl]amino]hexanoyl]-[Lys^8,Glu^22,Gln^34] (SEQ ID NO: 11)-GLP-1-(7-37)-peptide | < 35
3 | N^ε18-[(2S)-2-amino-6-[[(2S)-2-amino-6-[[(4S)-4-carboxy-4-[8-[10-(4-carboxyphenoxyl)decanoylamino]octanoylamino]butanoyl]amino]hexanoyl]amino]hexanoyl], N^ε26-[(2S)-2-amino-6-[[(2S)-2-amino-6-[[(4S)-4-carboxy-4-[8-[10-(4-carboxyphenoxyl)decanoylamino]octanoylamino]butanoyl]amino]hexanoyl]amino]hexanoyl]-[Aib^8,Lys^18,Glu^22,Gln^34] (SEQ ID NO: 9)-GLP-1-(7-37)-peptide | < 35
4 | N^ε18-[(2S)-2-amino-6-[[2-[2-[2-[[(4S)-4-carboxy-4-(13-carboxytridecanoylamino)butanoyl]amino]ethoxy]ethoxy]acetyl]amino]hexanoyl], N^ε26-[(2S)-2-amino-6-[[2-[2-[2-[[(4S)-4-carboxy-4-(13-carboxytridecanoylamino)butanoyl]amino]ethoxy]ethoxy]acetyl]amino]hexanoyl]-[Lys^18,Glu^22,Gln^34] (SEQ ID NO: 11)-GLP-1-(7-37)-peptide | < 35
5 | B1 | < 35
6 | B2 | < 35
7 | B3 | < 35
8 | B4 | < 35
9 | B5 | < 35
10 | B6 | < 35
11 | B7 | < 35
12 | B8 | < 35
13 | B9 | < 35
14 | B10 | < 35
15 | H[Aib]EGTFTSDVSK([εLys-εLys-γGlu-Decanoyl(10-(4-HOOC-PhO))])QLEEQAAK([εLys-εLys-γGlu-Decanoyl(10-(4-HOOC-PhO))])EFIAWLVQGRG | < 35

Target: T1, human GLP-1 receptor
Test: SPA displacement of [125I]-GLP-1(7-36)NH2 from human GLP-1 receptor membranes; IC50 at 2.0% HSA divided by IC50 at 0.005% HSA
Description: as §1

Row | Molecule | ratio [(IC50/nM) high HSA]/[(IC50/nM) low HSA]
16 | B1 | > 10
17 | B2 | > 10
18 | B3 | > 10
19 | B4 | > 10
20 | B5 | > 10
21 | B6 | > 10
22 | B7 | > 10
23 | B8 | > 10
24 | B9 | > 10
25 | B10 | > 10
26 | H[Aib]EGTFTSDVSK([εLys-εLys-γGlu-Decanoyl(10-(4-HOOC-PhO))])QLEEQAAK([εLys-εLys-γGlu-Decanoyl(10-(4-HOOC-PhO))])EFIAWLVQGRG | > 10
